The Human Domainome abundance scans (Beltran et al. 2025)

B1: Kinesin-like protein KIF16B, residues 1213 to 1273; numbered along this chain, Q96L93 (parent)
chain: ETWTVFRRYSRFREMHKTLKLKYAELAALEFPPKKLFGNKDERVIAERRSHLEKYLRDFFS

Variants of: B1
Assay: abundance fitness (aPCA) (normalised: wild type 0, dead -1); higher = more abundant; growth selection in yeast, the domain comes from the species named
Settings: Homo sapiens

Abundance fitness, by site and new letter:
L52: A -0.201, T -0.363, V 0.058, I -0.092, K -0.184, R -0.473, S -0.647, M -0.131, N -0.642, P 0.175, W 0.217, G -0.149, Q -0.866, F 0.048, H -0.123
R57: T -0.309, D -0.712, V -0.412, P -0.087, I -0.388, Q -0.776, H -0.6, M -0.468, E -0.636, L -0.368, Y -0.437, K -0.094, N -0.395, S -0.427, A -0.444, W -0.447, F -0.33, C -0.239
S50: G -0.1, D -0.11, P 0.045, H -0.039, E -0.696, T -0.056, Q -0.545, L -0.042, F -0.117, Y -0.66, C 0.256, A -0.213, V -0.36, K -0.133, N 0.05, R -0.301, W 0.117
K54: E -0.298, A -0.251, C -0.785, I -0.314, S -0.174, D -0.489, V -0.289, T -0.013, H -0.532, L -0.256, R 0.076, P -0.945, F -0.664, N -0.127, M -0.327, G -0.171, W -0.476
H51: A 0.043, W -0.069, N -0.436, D -0.778, E -0.379, R 0.194, G 0.248, Y -0.235, C -0.359, M -0.368, I -0.294, L -0.098, S -0.047, P -0.164, Q 0.002, K 0.376
E42: N 0.306, Q -0.056, G 0.266, R 0.122, S 0.186, V -0.012, I 0.053, D -0.031, F 0.224, K 0.227, T 0.078, H -0.476, W 0.268, Y -0.242, L 0.164
E47: C 0.038, W 0.014, D 0.183, A -0.307, L -0.274, V -0.173, F 0.117, H 0.129, M -0.053, N 0.099, Y -0.223, S 0.091, G 0.243, P 0.118, T 0.132, Q -0.175, K -0.011, R 0.099, I -0.2
D58: V -0.048, C -0.024, R 0.161, A 0.087, F 0.049, W 0.204, I 0.012, L -0.075, Q -0.153, G 0.03, N -0.149, H 0.09, K 0.241, M 0.056, S -0.182, P 0.09
L56: R -0.584, N -0.518, Y -0.263, Q 0.163, E -1.2, I -0.011, D -0.343, S -0.453, C 0.032, T -0.001, M -0.191, P -0.308, V -0.019, K -0.567
R49: A -0.166, I 0.367, C 0.247, V -0.41, M -0.477, K 0.504, G -0.01, T -0.286, L 0.279, W -0.064, S -0.145, Q -0.201, P -0.273, Y -0.68
R48: M 0.159, W 0.275, V -0.05, C -0.148, Q -0.291, F 0.087, K -0.061, D -0.186, I 0.123, E -0.374, T -0.363, Y -0.266, S -0.018, P 0.113, G 0.108
A46: Y -0.262, R 0.131, Q -0.03, D -0.01, E 0.037, M -0.073, W -0.176, C 0.093, V -0.057, F -0.27, L -0.324, G 0.211, T 0.242, S 0.147, P 0.256, K 0.186
Y55: H -0.116, G 0.021, N -0.249, P -0.19, W 0.281, M 0.185, K 0.481, S 0.12, R 0.396, V -0.082, C 0.265, D -0.613, E -0.942, A -0.007, L 0.182
F59: K -0.204, T -0.489, W -0.005, C -0.429, V -0.121, A -0.607, G -0.573, L -0.157, M -0.277, Q -0.51, S -0.994, E -0.627, I -0.031, R -0.461
S61: G -0.09, A -0.263, T -0.296, P -0.337, Q 0.11, K -0.025, C -0.412, R 0.143, M -0.073, Y -0.81, V -0.029, N -0.23, L -0.038
R43: W -0.155, M -0.32, Q 0.003, H 0.129, P -0.004, V -0.099, I -0.227, C -0.097, E -0.22, G 0.209, K 0.017, N 0.137, T 0.018, F -0.249, A 0.033, L -0.282, D -0.31, Y -0.489
I45: E 0.107, P 0.271, D 0.057, L 0.051, W 0.35, H 0.11, Y -0.274, F 0.158, T 0.158, G 0.264, C 0.133, A 0.177, K 0.281, Q 0.174, V 0.009, N 0.031, M 0.062, R 0.133
V44: Q 0.047, D 0.24, Y -0.215, A 0.029, S 0.351, N -0.06, E -0.145, C 0.316, G 0.188, R 0.117, W 0.112, K 0.18, P 0.299, T 0.263
E53: C 0.31, W 0.378, G 0.426, M 0.309, K 0.391, P 0.228, H 0.059, Y 0.329, A 0.191, T 0.317, S 0.414, L 0.352, F 0.243, N 0.292, R 0.412, I 0.197, V 0.277
F60: C -0.263, Q -1.01, A -0.729, P -0.759, L -0.087, G -0.647, V -0.165, M -0.256, I -0.143, S -0.585, R -0.565, W 0.153, E -1
